Kd and latent myostatin signal in muscle (fluorescent western blot, normalized to total protein, compared to WT mice) data for three substances are collected here from US20190255093A1.

In test [1] the target is murine proMyostatin (mouse) (UniProt O08689). Put plainly: method not stated.
The target of test [2] is latent myostatin in serum and muscle of mice (mouse) (UniProt O08689). Put plainly: cell-based or functional assay.

pKd: −log10 of the molar value.

Usually pKd stands for −log10 of the Kd, conventionally taken in molar units. Higher therefore signals a low Kd. In turn, SRK-015 (antibody) gave a pKd in test [1] of 8.08.

For muSRK-015 (antibody), the pKd in test [1] is 8.59.

On to muSRK-015P (antibody), for which the latent myostatin signal in muscle (fluorescent western blot, normalized to total protein, compared to WT mice) in test [2] was 3 fold. In test [1], the pKd is 8.54.
